Test [1] addresses murine neonatal Fc receptor (FcRn) (mouse | not stated) (UniProt Q61559). Description: SPR.
The target in test [2] is human neonatal Fc receptor (FcRn) (human) (UniProt P55899). Description: SPR. (Surface plasmon resonance follows binding to a sensor surface in real time, without labels.)
The target in test [3] is murine neonatal Fc receptor (FcRn) (mouse | not stated) (UniProt Q61559). Description: ELISA.
For test [4], the target named is human neonatal Fc receptor (FcRn) (human) (UniProt P55899). Description: ELISA. For orientation: ELISA stands for enzyme-linked immunosorbent assay.

UniProt Q61559, sequence (Q61559 22-365, chain 1 of 2): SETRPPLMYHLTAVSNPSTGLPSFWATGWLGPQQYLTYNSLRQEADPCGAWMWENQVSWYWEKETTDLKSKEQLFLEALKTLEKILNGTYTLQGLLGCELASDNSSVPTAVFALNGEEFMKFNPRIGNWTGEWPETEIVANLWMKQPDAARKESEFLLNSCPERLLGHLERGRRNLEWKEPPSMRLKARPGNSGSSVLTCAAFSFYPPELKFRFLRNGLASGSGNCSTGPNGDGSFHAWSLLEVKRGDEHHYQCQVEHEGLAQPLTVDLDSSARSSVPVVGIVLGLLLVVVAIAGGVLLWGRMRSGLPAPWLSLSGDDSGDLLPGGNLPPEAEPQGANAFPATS
UniProt Q61559, sequence (P01887 21-119, chain 2 of 2, further chain): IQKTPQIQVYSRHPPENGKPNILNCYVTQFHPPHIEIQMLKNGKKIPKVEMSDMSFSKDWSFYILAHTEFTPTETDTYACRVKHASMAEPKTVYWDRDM
UniProt P55899, sequence (P55899 27-297, chain 1 of 2): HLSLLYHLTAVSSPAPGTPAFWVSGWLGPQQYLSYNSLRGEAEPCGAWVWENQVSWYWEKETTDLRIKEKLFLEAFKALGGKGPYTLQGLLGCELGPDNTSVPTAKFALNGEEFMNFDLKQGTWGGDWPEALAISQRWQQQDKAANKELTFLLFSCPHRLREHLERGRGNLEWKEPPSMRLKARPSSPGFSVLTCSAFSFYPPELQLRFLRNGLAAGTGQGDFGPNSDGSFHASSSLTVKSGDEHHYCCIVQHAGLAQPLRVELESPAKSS
UniProt P55899, sequence (P61769 21-119, chain 2 of 2, further chain): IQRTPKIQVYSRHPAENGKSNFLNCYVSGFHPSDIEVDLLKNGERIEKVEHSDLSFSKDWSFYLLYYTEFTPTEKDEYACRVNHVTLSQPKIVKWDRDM

In general, Kd refers to the constant that tells how readily two partners part at equilibrium. Take “m66.6, human anti-MPER HIV monoclonal IgG1 (antibody)”: the figures for the Kd in test [1] and in test [2] were 0.2 to 0.4 nM and 1.3 to 2.8 nM, respectively.

The EC50 is the midpoint of the concentration-response curve. Read a high EC50 as a less potent agent. Turning to “B domain-deleted (BDD) FVIII (ReFacto AF) (natural protein)”, the EC50 stood at 130 nM in test [3] and 1140 nM in test [4].

These data come from publication PMC12208167.
